T1: human FAPα (Fibroblast activation protein alpha), cell surface expressed (human, UniProt Q12884 1-760)
T1 construct: Endogenous on human lung fibroblasts and CAFs
T1 sequence: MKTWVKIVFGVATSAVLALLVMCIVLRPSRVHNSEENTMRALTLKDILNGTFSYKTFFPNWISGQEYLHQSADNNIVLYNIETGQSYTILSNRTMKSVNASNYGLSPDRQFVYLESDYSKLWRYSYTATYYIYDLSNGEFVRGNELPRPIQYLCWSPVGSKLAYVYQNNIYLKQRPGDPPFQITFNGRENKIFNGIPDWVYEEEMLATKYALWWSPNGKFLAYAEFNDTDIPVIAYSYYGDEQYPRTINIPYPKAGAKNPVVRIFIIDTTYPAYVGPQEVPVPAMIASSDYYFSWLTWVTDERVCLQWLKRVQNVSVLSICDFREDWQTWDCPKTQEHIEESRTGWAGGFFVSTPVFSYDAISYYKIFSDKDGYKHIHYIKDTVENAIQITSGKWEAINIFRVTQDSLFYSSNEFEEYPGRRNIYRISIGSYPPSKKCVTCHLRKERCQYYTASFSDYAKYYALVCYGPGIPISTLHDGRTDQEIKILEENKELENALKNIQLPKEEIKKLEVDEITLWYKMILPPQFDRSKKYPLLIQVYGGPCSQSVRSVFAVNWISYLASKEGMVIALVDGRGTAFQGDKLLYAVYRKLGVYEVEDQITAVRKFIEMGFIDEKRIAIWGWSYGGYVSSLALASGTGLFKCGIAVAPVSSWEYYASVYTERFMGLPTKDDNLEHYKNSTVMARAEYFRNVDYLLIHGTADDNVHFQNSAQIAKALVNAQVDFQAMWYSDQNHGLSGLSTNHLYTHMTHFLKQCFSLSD

T2: human DR4 (Death Receptor 4), cell surface expressed on human tumor cell lines (human, UniProt O00220 24-468)
T2 construct: also called TNFRSF10A; TRAIL-R1
T2 sequence: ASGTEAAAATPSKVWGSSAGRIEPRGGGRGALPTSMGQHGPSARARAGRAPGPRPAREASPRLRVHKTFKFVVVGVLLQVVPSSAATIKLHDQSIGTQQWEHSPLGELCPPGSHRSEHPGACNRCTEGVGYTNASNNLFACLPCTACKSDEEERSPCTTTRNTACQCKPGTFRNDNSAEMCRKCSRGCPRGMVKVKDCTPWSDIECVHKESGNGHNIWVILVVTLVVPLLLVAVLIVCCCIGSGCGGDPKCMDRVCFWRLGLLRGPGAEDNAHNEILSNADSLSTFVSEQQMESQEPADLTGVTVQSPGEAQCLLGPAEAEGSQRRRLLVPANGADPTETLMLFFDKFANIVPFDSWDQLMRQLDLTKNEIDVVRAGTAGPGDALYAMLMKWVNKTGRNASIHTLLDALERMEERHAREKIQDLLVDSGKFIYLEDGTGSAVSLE

B1: BisG1-FAPα-FERL/b12-FERR (bispecific antibody, human IgG1, kappa)
heavy 1: EVQLLESGGGLVQPGGSPRLSCEASGFTFSSYALSWVRQAPGKGLEWVSAISGSGGGRYYADSVKGRFTISRDNSKNTLFLQMNSLRAEDTAVYYCAKEGYSSSGTYWDHWGQGTLVTVSSASTKGPSVFPLAPSSKSTSGGTAALGCLVKDYFPEPVTVSWNSGALTSGVHTFPAVLQSSGLYSLSSVVTVPSSSLGTQTYICNVNHKPSNTKVDKRVEPKSCDKTHTCPPCPAPEFERGPSVFLFPPKPKDTLMISRTPEVTCVVVDVSHEDPEVKFNWYVDGVEVHNAKTKPREEQYNSTYRVVSVLTVLHQDWLNGKEYKCKVSNKALPAPIEKTISKAKGQPREPQVYTLPPSREEMTKNQVSLTCLVKGFYPSDIAVEWESNGQPENNYKTTPPVLDSDGSFLLYSKLTVDKSRWQQGNVFSCSVMHEALHNHYTQKSLSLSPG
light 1: AIQMTQSPSSVSASVGDRVTITCRASQGVSSWLAWYQQKPGRAPKLLIYVASTLQSGVPSRFSGSGSGTDFTLTINSLQPEDFATYYCQQANSFPPTFGQGTRLEMKRTVAAPSVFIFPPSDEQLKSGTASVVCLLNNFYPREAKVQWKVDNALQSGNSQESVTEQDSKDSTYSLSSTLTLSKADYEKHKVYACEVTHQGLSSPVTKSFNRGEC
heavy 2: QVQLVQSGAEVKKPGASVKVSCQASGYRFSNFVIHWVRQAPGQRFEWMGWINPYNGNKEFSAKFQDRVTFTADTSANTAYMELRSLRSADTAVYYCARVGPYSWDDSPQDNYYMDVWGKGTTVIVSSASTKGPSVFPLAPSSKSTSGGTAALGCLVKDYFPEPVTVSWNSGALTSGVHTFPAVLQSSGLYSLSSVVTVPSSSLGTQTYICNVNHKPSNTKVDKRVEPKSCDKTHTCPPCPAPEFERGPSVFLFPPKPKDTLMISRTPEVTCVVVDVSHEDPEVKFNWYVDGVEVHNAKTKPREEQYNSTYRVVSVLTVLHQDWLNGKEYKCKVSNKALPAPIEKTISKAKGQPREPQVYTLPPSREEMTKNQVSLTCLVKGFYPSDIAVEWESNGQPENNYKTTPPVLDSDGSFFLYSRLTVDKSRWQQGNVFSCSVMHEALHNHYTQKSLSLSPG
light 2: EIVLTQSPGTLSLSPGERATFSCRSSHSIRSRRVAWYQHKPGQAPRLVIHGVSNRASGISDRFSGSGSGTDFTLTITRVEPEDFALYYCQVYGASSYTFGQGTKLERKRTVAAPSVFIFPPSDEQLKSGTASVVCLLNNFYPREAKVQWKVDNALQSGNSQESVTEQDSKDSTYSLSSTLTLSKADYEKHKVYACEVTHQGLSSPVTKSFNRGEC
B2: BisG1-b12-FERL/DR4-FERR (bispecific antibody, human IgG1, kappa, lambda)
heavy 1: QVQLVQSGAEVKKPGASVKVSCQASGYRFSNFVIHWVRQAPGQRFEWMGWINPYNGNKEFSAKFQDRVTFTADTSANTAYMELRSLRSADTAVYYCARVGPYSWDDSPQDNYYMDVWGKGTTVIVSSASTKGPSVFPLAPSSKSTSGGTAALGCLVKDYFPEPVTVSWNSGALTSGVHTFPAVLQSSGLYSLSSVVTVPSSSLGTQTYICNVNHKPSNTKVDKRVEPKSCDKTHTCPPCPAPEFERGPSVFLFPPKPKDTLMISRTPEVTCVVVDVSHEDPEVKFNWYVDGVEVHNAKTKPREEQYNSTYRVVSVLTVLHQDWLNGKEYKCKVSNKALPAPIEKTISKAKGQPREPQVYTLPPSREEMTKNQVSLTCLVKGFYPSDIAVEWESNGQPENNYKTTPPVLDSDGSFLLYSKLTVDKSRWQQGNVFSCSVMHEALHNHYTQKSLSLSPG
light 1: EIVLTQSPGTLSLSPGERATFSCRSSHSIRSRRVAWYQHKPGQAPRLVIHGVSNRASGISDRFSGSGSGTDFTLTITRVEPEDFALYYCQVYGASSYTFGQGTKLERKRTVAAPSVFIFPPSDEQLKSGTASVVCLLNNFYPREAKVQWKVDNALQSGNSQESVTEQDSKDSTYSLSSTLTLSKADYEKHKVYACEVTHQGLSSPVTKSFNRGEC
heavy 2: QVQLQESGPGLVKPSGTLSLTCAVSGGSISSYSWWSWIRQPPGKGLEWIGELYHSGSTNYNPSLKSRVTISVDKSKNQFSLKLRSVTAADTAVYYCVRGVATIDYWGQGTLVTVSSASTKGPSVFPLAPSSKSTSGGTAALGCLVKDYFPEPVTVSWNSGALTSGVHTFPAVLQSSGLYSLSSVVTVPSSSLGTQTYICNVNHKPSNTKVDKRVEPKSCDKTHTCPPCPAPEFERGPSVFLFPPKPKDTLMISRTPEVTCVVVDVSHEDPEVKFNWYVDGVEVHNAKTKPREEQYNSTYRVVSVLTVLHQDWLNGKEYKCKVSNKALPAPIEKTISKAKGQPREPQVYTLPPSREEMTKNQVSLTCLVKGFYPSDIAVEWESNGQPENNYKTTPPVLDSDGSFFLYSRLTVDKSRWQQGNVFSCSVMHEALHNHYTQKSLSLSPG
light 2: QSALTQPPSASGSPGQSVTISCTGTSSDVGGYNFVSWYQQDPGKAPKLLIYEVTKRPSGVPDRFSGSKSGNTASLTVSGLQAEDEADYYCSSYAGSNNVMFGGGTKLTVLGQPKAAPSVTLFPPSSEELQANKATLVCLISDFYPGAVTVAWKADSSPVKAGVETTTPSKQSNNKYAASSYLSLTPEQWKSHRSYSCQVTHEGSTVEKTVAPTECS
notes: Fab-arm exchange of IgG1-b12-FERL and IgG1-DR4-FERR; also called bsIgG1-ctrl-FERLxDR4-FERR
B3: IgG1-FAPα-FERL (antibody)
heavy: EVQLLESGGGLVQPGGSPRLSCEASGFTFSSYALSWVRQAPGKGLEWVSAISGSGGGRYYADSVKGRFTISRDNSKNTLFLQMNSLRAEDTAVYYCAKEGYSSSGTYWDHWGQGTLVTVSSASTKGPSVFPLAPSSKSTSGGTAALGCLVKDYFPEPVTVSWNSGALTSGVHTFPAVLQSSGLYSLSSVVTVPSSSLGTQTYICNVNHKPSNTKVDKRVEPKSCDKTHTCPPCPAPEFERGPSVFLFPPKPKDTLMISRTPEVTCVVVDVSHEDPEVKFNWYVDGVEVHNAKTKPREEQYNSTYRVVSVLTVLHQDWLNGKEYKCKVSNKALPAPIEKTISKAKGQPREPQVYTLPPSREEMTKNQVSLTCLVKGFYPSDIAVEWESNGQPENNYKTTPPVLDSDGSFLLYSKLTVDKSRWQQGNVFSCSVMHEALHNHYTQKSLSLSPG
light: AIQMTQSPSSVSASVGDRVTITCRASQGVSSWLAWYQQKPGRAPKLLIYVASTLQSGVPSRFSGSGSGTDFTLTINSLQPEDFATYYCQQANSFPPTFGQGTRLEMKRTVAAPSVFIFPPSDEQLKSGTASVVCLLNNFYPREAKVQWKVDNALQSGNSQESVTEQDSKDSTYSLSSTLTLSKADYEKHKVYACEVTHQGLSSPVTKSFNRGEC
notes: Bivalent monoclonal IgG1 kappa
B4: IgG1-DR4-FERR (antibody, V domains shown)
VH: QVQLQESGPGLVKPSGTLSLTCAVSGGSISSYSWWSWIRQPPGKGLEWIGELYHSGSTNYNPSLKSRVTISVDKSKNQFSLKLRSVTAADTAVYYCVRGVATIDYWGQGTLVTVSS
VL: QSALTQPPSASGSPGQSVTISCTGTSSDVGGYNFVSWYQQDPGKAPKLLIYEVTKRPSGVPDRFSGSKSGNTASLTVSGLQAEDEADYYCSSYAGSNNVMFGGGTKLTVLG
notes: Bivalent monoclonal IgG1 lambda

Assays:
[1] = molecular target: T1, human FAPα (Fibroblast activation …); test: flow cytometry, human lung fibroblasts, n = 1
Method: Binding of bispecific or monoclonal antibodies carrying the anti-FAPα arm derived from IgG1-FAPα-FERL (BisG1-FAPα-FERL/DR4-FERR, BisG1-FAPα-FERL/b12-FERR, and IgG1-FAPα-FERL) to cell surface expressed human FAPα was analyzed by flow cytometry using human lung fibroblasts and CAFs, which endogenously express FAPα. BisG1-b12-FERL/b12-FERR was used as negative control.
Human lung fibroblasts and CAFs (50,000 cells/well) were seeded in 96-Well round bottom plates (Greiner Bio-one, Cat #650101). Antibody dilutions were prepared using fluorescence-activated cell sorting (FACS) buffer, consisting of phosphate buffer saline (PBS, Lonza, Cat #BE17-517Q)+1% Bovine Serum Albumin (BSA, Roche, Cat #10735086001)+0.02% Sodium Azide (Bio-World, Cat #41920044-3). Plates were centrifuged, supernatant was removed, cells were resuspended in 50 μL of human Fc Block (BD, Cat #564220, diluted 1:100 in FACS buffer) and 50 μL of viability stain TO-PRO-3 Iodide (Thermo Fisher, Cat #T3605, diluted 1: 25,000 in FACS buffer), and incubated for 15 min at 4° C. Plates were washed three times with FACS buffer. Plates were centrifuged, supernatant was removed, cells were resuspended in 50 μL of antibody dilutions (concentration range 90-0.0005 μg/mL, three-fold dilution steps using FACS buffer) of BisG1-FAPα-FERL/DR4-FERR, BisG1-FAPα-FERL/b12-FERR, BisG1-b12-FERL/b12-FERR (top six concentrations only for CAFs culture) or IgG1-FAPα-FERL (top four concentrations only for CAFs culture) and incubated for 30 min at 4° C. Cells were washed three times with FACS buffer and resuspended in 50 μL of Fluorescein isothiocyanate (FITC)-labeled polyclonal antibody goat anti-mouse IgG1 (Jackson Immuno Research, Cat #109-096-097, diluted 1:100 in FACS buffer). […] Antibody binding to viable cells (TO-PRO-3 negative) was analyzed by flow cytometry on a FACSCelesta™ (BD biosciences) and data were processed using FlowJo_v10.8.1 (FlowJo LLC). Geomean fluorescence intensity, gMFI, was determined and visualized using GraphPad Prism.

[2] = molecular target: T2, human DR4 (Death Receptor 4), cell …; test: flow cytometry, PANC-1 cells, n = 3

Binder	EC50 [1]	EC50 [2]
B1	0.043 µg/mL	
B2		1.44 µg/mL
B3	0.016 µg/mL	
B4		0.39 µg/mL

— patent publication US20250002610A1 (Genmab, published 2025)
